Data published in paper PMC8018780 (2021).
Ends that are not written are not given here.

B1: MTfp (peptide 1), peptide derived from melanotransferrin (peptide)
peptide: FRCLVENRGDVPFVTRIR-NH2
B2: GYR (peptide 2) (peptide)
peptide: GYRPVHNIRGHWAPGK-NH2

Columns and labels:
Experiment in all cases: SPR
[1] = target: recombinant mouse transferrin receptor (TfR) protein (mouse, UniProt Q62351 1-763)
[2] = target: recombinant human transferrin receptor (TfR) protein (human, UniProt P02786 101-760)
[3] = target: low-density lipoprotein receptor-related protein 1 (LRP-1), human (human)
low-density lipoprotein receptor-related protein 1 (LRP-1), human (human), sequence (Q07954 20-3943, chain 1 of 2): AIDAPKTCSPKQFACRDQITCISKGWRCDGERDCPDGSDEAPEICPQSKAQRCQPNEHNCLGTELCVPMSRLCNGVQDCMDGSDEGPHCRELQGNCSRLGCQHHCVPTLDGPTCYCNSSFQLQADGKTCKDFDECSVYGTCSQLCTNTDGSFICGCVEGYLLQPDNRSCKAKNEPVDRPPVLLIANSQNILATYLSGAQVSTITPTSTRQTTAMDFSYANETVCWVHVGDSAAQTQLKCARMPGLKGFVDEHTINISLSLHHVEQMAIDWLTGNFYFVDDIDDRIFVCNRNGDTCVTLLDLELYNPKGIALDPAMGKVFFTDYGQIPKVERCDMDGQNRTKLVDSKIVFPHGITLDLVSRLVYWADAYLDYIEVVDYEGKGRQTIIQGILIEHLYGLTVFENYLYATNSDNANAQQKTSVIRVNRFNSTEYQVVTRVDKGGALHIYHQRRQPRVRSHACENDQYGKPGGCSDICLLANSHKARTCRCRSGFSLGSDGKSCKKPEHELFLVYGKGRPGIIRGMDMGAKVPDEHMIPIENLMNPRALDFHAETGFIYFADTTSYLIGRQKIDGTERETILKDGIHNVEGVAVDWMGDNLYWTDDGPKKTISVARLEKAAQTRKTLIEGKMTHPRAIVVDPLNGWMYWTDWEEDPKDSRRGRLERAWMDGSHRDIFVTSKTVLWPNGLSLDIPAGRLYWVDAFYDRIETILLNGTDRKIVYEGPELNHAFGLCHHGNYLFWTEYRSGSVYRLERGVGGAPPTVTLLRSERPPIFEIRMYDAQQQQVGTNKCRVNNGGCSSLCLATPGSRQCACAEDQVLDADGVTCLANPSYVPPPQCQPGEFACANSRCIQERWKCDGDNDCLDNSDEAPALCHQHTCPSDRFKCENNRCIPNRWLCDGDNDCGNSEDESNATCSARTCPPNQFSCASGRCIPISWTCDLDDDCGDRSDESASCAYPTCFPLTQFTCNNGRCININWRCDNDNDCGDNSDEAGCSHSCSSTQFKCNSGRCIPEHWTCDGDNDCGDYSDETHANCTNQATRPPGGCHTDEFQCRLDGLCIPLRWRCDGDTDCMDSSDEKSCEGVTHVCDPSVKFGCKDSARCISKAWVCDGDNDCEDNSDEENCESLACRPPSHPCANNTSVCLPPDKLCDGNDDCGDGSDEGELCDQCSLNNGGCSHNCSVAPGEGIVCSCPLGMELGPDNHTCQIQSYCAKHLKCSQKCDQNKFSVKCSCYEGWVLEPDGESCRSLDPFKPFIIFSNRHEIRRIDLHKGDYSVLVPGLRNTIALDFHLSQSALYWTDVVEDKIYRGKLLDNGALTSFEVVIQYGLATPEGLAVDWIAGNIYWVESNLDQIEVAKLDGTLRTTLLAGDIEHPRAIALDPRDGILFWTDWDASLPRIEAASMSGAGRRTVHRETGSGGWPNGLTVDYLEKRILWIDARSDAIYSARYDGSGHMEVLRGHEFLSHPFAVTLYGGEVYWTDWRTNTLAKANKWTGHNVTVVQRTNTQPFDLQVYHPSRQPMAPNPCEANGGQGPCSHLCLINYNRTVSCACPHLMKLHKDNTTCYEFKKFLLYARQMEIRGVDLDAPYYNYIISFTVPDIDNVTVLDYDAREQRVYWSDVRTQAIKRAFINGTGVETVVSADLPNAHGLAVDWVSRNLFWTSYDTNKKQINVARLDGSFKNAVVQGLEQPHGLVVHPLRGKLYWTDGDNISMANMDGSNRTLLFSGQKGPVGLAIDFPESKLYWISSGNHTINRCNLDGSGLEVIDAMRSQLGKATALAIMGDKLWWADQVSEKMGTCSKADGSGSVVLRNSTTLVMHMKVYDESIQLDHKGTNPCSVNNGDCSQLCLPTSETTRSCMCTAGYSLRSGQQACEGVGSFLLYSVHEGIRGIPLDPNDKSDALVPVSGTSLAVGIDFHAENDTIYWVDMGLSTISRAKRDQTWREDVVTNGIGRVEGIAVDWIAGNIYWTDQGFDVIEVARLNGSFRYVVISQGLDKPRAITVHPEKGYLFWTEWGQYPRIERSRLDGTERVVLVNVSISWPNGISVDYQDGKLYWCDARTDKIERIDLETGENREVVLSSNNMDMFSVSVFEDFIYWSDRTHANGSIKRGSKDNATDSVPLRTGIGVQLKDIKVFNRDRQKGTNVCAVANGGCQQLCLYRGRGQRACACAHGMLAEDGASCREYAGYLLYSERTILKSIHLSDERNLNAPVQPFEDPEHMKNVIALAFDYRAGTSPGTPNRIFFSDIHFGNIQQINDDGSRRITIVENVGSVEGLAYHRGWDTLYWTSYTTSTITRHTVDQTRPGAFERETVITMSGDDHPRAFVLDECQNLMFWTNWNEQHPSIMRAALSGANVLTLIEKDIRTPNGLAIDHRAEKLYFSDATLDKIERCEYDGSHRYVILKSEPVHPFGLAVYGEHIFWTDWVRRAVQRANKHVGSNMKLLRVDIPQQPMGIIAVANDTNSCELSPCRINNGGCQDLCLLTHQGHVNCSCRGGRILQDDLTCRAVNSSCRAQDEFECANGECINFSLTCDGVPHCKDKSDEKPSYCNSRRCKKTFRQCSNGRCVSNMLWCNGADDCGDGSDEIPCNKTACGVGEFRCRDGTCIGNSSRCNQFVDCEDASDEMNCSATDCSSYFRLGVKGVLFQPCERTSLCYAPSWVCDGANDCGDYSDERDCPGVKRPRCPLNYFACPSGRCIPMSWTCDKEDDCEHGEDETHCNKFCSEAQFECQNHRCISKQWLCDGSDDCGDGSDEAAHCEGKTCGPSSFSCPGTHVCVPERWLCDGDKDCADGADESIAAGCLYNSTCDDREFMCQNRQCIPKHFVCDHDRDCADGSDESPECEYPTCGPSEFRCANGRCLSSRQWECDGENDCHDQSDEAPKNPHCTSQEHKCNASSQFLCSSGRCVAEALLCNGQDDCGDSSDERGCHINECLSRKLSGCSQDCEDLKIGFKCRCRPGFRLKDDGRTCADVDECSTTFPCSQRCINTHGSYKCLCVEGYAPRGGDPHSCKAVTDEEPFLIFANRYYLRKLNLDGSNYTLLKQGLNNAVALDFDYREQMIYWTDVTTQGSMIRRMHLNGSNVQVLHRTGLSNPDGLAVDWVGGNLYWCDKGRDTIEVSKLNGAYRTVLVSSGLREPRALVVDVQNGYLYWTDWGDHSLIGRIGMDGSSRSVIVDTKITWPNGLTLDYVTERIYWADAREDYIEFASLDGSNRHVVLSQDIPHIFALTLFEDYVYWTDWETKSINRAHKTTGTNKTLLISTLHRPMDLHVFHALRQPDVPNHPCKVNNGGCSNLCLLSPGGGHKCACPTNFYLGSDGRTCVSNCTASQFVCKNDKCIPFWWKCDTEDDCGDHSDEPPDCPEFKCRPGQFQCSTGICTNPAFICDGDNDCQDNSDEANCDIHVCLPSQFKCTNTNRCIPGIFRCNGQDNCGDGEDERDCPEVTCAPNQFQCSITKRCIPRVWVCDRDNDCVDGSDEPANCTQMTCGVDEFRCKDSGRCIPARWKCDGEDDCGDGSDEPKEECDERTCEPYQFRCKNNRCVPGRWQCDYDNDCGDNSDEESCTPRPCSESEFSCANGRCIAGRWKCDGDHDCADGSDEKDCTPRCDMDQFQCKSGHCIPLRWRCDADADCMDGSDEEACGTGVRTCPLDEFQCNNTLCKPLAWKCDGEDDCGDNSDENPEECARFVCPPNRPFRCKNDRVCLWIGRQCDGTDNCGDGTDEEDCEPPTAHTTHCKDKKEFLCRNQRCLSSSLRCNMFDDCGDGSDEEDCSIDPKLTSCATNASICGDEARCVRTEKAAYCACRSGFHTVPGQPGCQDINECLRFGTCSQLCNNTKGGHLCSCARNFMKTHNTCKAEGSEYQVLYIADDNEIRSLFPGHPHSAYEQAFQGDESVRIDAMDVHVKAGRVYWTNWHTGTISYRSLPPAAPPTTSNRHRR
low-density lipoprotein receptor-related protein 1 (LRP-1), human (human), sequence (Q07954 3944-4544, chain 2 of 2): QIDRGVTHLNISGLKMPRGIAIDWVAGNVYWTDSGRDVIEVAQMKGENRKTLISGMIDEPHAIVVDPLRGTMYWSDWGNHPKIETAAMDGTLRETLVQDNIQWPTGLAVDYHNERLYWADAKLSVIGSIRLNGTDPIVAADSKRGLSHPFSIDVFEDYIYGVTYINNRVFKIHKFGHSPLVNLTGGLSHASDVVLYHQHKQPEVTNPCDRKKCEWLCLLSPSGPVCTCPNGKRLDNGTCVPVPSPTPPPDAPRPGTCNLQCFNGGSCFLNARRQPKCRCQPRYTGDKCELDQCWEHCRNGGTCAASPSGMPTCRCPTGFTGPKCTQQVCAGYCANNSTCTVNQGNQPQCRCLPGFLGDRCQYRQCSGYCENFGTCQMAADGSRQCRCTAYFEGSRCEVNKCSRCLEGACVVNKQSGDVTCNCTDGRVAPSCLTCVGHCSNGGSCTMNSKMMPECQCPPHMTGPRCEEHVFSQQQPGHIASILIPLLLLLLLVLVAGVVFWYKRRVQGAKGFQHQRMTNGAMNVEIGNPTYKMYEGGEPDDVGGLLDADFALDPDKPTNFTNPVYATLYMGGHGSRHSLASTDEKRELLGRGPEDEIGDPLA

Row | Binder | Kd [1] [nM] | Kd [2] [nM] | Kd [3] [nM]
1 | B1 | 1300 | 507 | 0.57
2 | B2 |  | 171000 | 100
